Values of other authors in paper PMC3439503.

Molecular target: dystrophin N-ABD N-ABD (Homo sapiens) (UniProt P11532)

Kd: 4 µM
Substance: dystrophin N-ABD N-ABD (from UniProt P11532)
